Laboratory results as given in publication PMC3479203.

Molecular target: C-terminal SPA-tagged RpoB fusion protein (B. subtilis) (UniProt P37870)
Assay: affinity purification with mass spectrometry

Chain of UniProt P37870 (P37870 whole entry, the tested form may be a part): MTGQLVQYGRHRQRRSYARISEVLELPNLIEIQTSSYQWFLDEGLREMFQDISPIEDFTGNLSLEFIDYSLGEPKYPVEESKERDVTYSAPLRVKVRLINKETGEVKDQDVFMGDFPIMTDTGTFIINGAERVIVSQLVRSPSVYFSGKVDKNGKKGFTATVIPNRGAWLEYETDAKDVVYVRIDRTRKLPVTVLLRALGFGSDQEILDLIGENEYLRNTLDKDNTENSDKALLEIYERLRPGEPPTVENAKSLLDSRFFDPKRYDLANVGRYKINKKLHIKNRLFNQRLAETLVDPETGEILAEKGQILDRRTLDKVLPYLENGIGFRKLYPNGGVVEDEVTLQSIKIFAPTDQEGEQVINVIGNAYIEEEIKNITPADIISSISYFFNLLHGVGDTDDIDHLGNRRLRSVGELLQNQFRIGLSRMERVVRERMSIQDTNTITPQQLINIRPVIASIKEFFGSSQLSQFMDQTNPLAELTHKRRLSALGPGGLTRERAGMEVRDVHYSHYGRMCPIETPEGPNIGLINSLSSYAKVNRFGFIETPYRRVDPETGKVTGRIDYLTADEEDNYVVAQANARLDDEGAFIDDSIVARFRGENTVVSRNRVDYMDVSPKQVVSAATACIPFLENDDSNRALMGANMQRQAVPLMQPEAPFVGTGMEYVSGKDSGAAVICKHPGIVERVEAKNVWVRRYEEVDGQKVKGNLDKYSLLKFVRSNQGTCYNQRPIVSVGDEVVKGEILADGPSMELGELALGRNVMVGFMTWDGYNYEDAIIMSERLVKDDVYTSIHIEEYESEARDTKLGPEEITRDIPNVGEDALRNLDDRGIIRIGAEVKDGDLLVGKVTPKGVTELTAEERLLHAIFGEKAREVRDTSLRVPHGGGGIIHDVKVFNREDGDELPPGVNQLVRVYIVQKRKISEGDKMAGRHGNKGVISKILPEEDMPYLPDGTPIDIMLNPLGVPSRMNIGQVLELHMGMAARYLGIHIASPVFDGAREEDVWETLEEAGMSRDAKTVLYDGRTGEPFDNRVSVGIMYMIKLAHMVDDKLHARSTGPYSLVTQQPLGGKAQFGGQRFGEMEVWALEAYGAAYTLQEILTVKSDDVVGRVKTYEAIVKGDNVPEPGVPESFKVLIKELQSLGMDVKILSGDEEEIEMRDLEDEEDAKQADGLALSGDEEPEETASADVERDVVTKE

In the case of “SigA (43 kDa) (from UniProt P06224 1-371) (natural protein)”, the relative fraction of RNAP bound to SigA, diamide stress is reported as 58.1% and the relative fraction of RNAP bound to SigA, no stress is reported as 61.5%.

B1: Spx (15 kDa) (natural protein)
chain: MVTLYTSPSCTSCRKARAWLEEHEIPFVERNIFSEPLSIDEIKQILRMTEDGTDEIISTRSKVFQKLNVNVESMPLQDLYRLINEHPGLLRRPIIIDEKRLQVGYNEDEIRRFLPRKVRSFQLREAQRLAN
B1 showed a relative fraction of RNAP bound to Spx, diamide stress of 21.6% and a relative fraction of RNAP bound to Spx, no stress of 11%.
